{
  "source": "the DeepSol protein solubility set",
  "data": [
    {"test": "soluble on expression in E. coli; label from the status in PepcDB or PDB records", "values": [
      {"sequence": "TMSHGFGVMAGINLTKNIGVQAEVNYYQINQKYADGNLNRDLTINYFNIPVLLSLNTNKAAPVNLNLVAGPQFGINAGSKFETSGNGNTDSTTAVVALRKGDVGVAYGAGLEFALNKSHSVRLDLGFRGFYGLVNMDSSTNGQGTYNVIVSASRKTYGGYAGITWMF", "soluble on expression in E. coli": "not soluble"},
      {"sequence": "TNRLSAYTSHRISKYNDRQTNTSLDINIGKFSSNTNYFFYHTDGWQNSPFEIKKKKGSGEPVLEETYKKTFRAQENQGVSQSLSYYATNNLSFSGNVQYNKRQIFTPTFSEKKAYDMDYRALTASLGTNYLFPNGLHTLSFDAVYDRFRFGYLYHDKDSSESLINNQGQTEQPTFFPGQLRNKNDQIRYTAEARGVFTLPYAQKLTGGLEYFREELISPYNLITDKADASTLSAYVQDEWKPLDWFNMTAGFRLVHHQEFGTRMTPKVSILAKYGPLNFRATYANGYKTPTLKELFARNELTTMGSHNLYLGNADLKPQMSDYYALGLEYNQGPISFSATVYDNELRNLISFMDIPTSPEHEAQGIKKTKQYANIGKARSRGLDVLCDASIGWGIKLGAGYSLVEAKNLQTDEWLEGAARHRANVHADWVHYWGQYRLGVSLFGRIQSERYYKDGNAPDYTLWRLATSHRFAHFRHIILDGTLGIDNLFDYVDDRPMGVNYATVTPGRTFFAQIAIRFNN", "soluble on expression in E. coli": "not soluble"},
      {"sequence": "TTFENKKVLVLGLARSGEAAARLLAKLGAIVTVNDGKPFDENPTAQSLLEEGIKVVCGSHPLELLDEDFCYMIKNPGIPYNNPMVKKALEKQIPVL", "soluble on expression in E. coli": "not soluble"},
      {"sequence": "TVAVSQIVEHPALDATRQGLLDGLKAKGYEEGKNLEFDYKTAQGNPAIAVQIARQYVGESPDVLVGIATPSAQALVSATRTIPVVFTAVTDPVGAKLVKSMKQPGKNVTGLSDLSPVAQHVELIQEILPQVKSIGVVFNPGEANAVTLVNLLKESAEAKGIKVVEATALKSADVQSATQAIAAKSDILYAPTDNTVASAIEGMIVAANQAKKPVFGGATSYVEKGAIAGLGFDYYQVGVQTADYVAAILDGQEPGKLDVKVATGSDLVINESAASKLGIQLPSSVVQRATSMQ", "soluble on expression in E. coli": "not soluble"},
      {"sequence": "TVEAKNETFAPQHPDQYLSWKATSEQSERVDALAEDPRLVILWAGYPFSRDYNKPRGHAFAVTDVRETLRTGAPKNAEDGPLPMACWSCKSPDVARLIQKDGEDGYFHGKWARGGPEIVNNLGCADCHNTASPEFAKGKPELTLSRPYAARAMEAIGKPFEKAGRFDQQSMVCGQCHVEYYFDGKNKAVKFPWDDGMKVENMEQYYDKIAFSDWTNSLSKTPMLKAEHPEYETWTAGIHGKNNVTCIDCHMPKVQNAEGKLYTDHKIGNPFDNFAQTCANCHTQDKAALQKVVAERKQSINDLKIKVEDQLVHAHFEAKAALDAGATEAEMKPIQDDIRHAQWRWDLAIASHGIHMHAPEEGLRMLGTAMDKAADARTKLARLLATKGITHEIQIPDISTKEKAQQAIGLNMEQIKAEKQDFIKTVIPQWEEQARKNGLLS", "soluble on expression in E. coli": "soluble"},
      {"sequence": "TVESNWGGAILIGSDFDTVSATANVPSASGGSSAAGTAWVGIDGDTCQTAILQTGFDWYGDGTYDAWYEWYPEVSDDFSGITISEGDSIQMSVTATSDTSGSATLENLTTGQKVSKSFSNESSGSLCRTNAEFIIEDFEECNSNGSDCEFVPFASFSPAVEFTDCSVTSDGESVSLDDAQITQVIINNQDVTDCSVSGTTVSCSYV", "soluble on expression in E. coli": "soluble"},
      {"sequence": "TVGILWVNWDSRVRYANRAVESMLGYAPGQVVERPLIDFEPDLHMDRWLNLWKNARSSEDSAQVFETHCLRADGSLLPADVSLSFLRFR", "soluble on expression in E. coli": "not soluble"},
      {"sequence": "TVVCDNGYGDLAATSALTTVIKDPISLTIKDIYEHGVKNPFTKIIHKLKKFIRYRKVLRWSRMWWVLLVREIVGDNTIEKKTEKALREIWDQCTIAVYNNTLNAVESKPLLFLHGILNECRNNFATKLRQDPSLIVAKIDQIIKSQIYRFWVSEPYLKIGRSHTLYTHITPDAVPQLPKECTLKHLSSYMEEKLKSMESKKNIESGKYEFDVDSSETDSTKDDGKPDDDDDDDDNFDDDDNFDDDTVEEEDASGDLFKNEKKDENKE", "soluble on expression in E. coli": "soluble"},
      {"sequence": "TYDSLKESTARDTGHLTLTTPGYFAKEEEMPLSNGLSHADEITKQLIGLSEVRGVQPRVEFSGLISNGSKSSIFIGIGVNEREFDMKGPFLDVRDGQTLSNIHASRYDASEPEVMLGVDLASNLSVNVGDWITLLATTTDGALNAYDFKVRGIYSTGVPELDKRQLYVHINSAQSLLGSDKVSALSVFLFDTCLTNKVEQQVATILNKQKPSFGDQEVEITPWQERAFFYLKVKDLYDR", "soluble on expression in E. coli": "not soluble"},
      {"sequence": "VDAFVGTWKLVDSKNFDDYMKSLGVGFATRQVGNMTKPTTIIEVNGDTVIIKTQSTFKNTEISFKLGVEFDETTADDRKVKSIVTLDGGKLVHVQKWNGQETSLVREMVDGKLILTLTHGTAVCTRTYEKQA", "soluble on expression in E. coli": "soluble"},
      {"sequence": "VDHLHIVGDVYDRGPYPDKIMDTLMNYHSLDFQWGNHDILWMGAASGSRVCAANVIRISARYLNLDILEDSYGISLRPLALFADEIYKNDPCTYFQPKNEDNLNYSKAEITQIARMHKAISIIQFKLEGEIINRRKEFDMNHRLLLQMIDYKKGTIHLKGKDYQLLDTHFPTIDPNDPYKLTKEEKELIEKITASFKNCRRLQKHVQFLYSKGSMFLTYNGNLLYHGCIPLYEDGTFMEMKLRGENFSGRELLEQFEILTREAYVRKPGTKEKKYACDIVWYLWTGAVSSLFGKSEMTTFERYFIAEKETHKEEKNPYYKLRNEETICKQILEEFGLDGECGHIINGHTPVKEGKGESPIKANTKMLVIDGGFAKAYHKETTLAGYTLLYNSY", "soluble on expression in E. coli": "not soluble"},
      {"sequence": "VDYKEWYDLRIEALQMQAQMHRSPLRGLIGARVGLIPHQLYIAHEVGQRFAPRVLLADEVGLGKTIEAGLIIHQQLKTGRAERILILVPDSLQYQWMIEMRRRFNLQFSLFDLTRTASIKEHDPDLNPFLTEQCIIASVDLMVDHDDLREQALEAGFDLLVVDEAHHLMWNEEEGGNDRYDLVEELAQQTPGVLLLTATPE", "soluble on expression in E. coli": "not soluble"},
      {"sequence": "VELPTEYTEQFSSQPTLNSKPIIKFEFTGNSVDAPVLSMASKKFGIDFSILMSQIDYAGGVKFGFVIAEVEGDGEAITAAKCYLINNNVKVEVLGYVG", "soluble on expression in E. coli": "not soluble"},
      {"sequence": "VFRQTFLEFSQRTVSQARLDIGRKKLQELSSTFARAENEFGVPAGVIAAFWAMETDFGAVQGDFNTRNALVTLSHDCRRPELFRPQLLALIEMVQHGDLDPATNTGAWAGEIGQVQMLPKDIIAFGVDGDGNGHINVKDSAPDAILTAAKFIQHLGFKKGEPWMQEVSVPENLPWEKSGLGGSLTAGDWFALGVTPRDGNKNFASLPAALIMPQGRKGPTFITYPNFNIYLEWNQSFIYTTSAAYFANRLMGAPVY", "soluble on expression in E. coli": "not soluble"},
      {"sequence": "VGGHEKVISLGFDASKGFHTYAFDWQPGYIKWYVDGVLKHTATANIPSTPGKIMMNLWNGTGVDDWLGSYNGANPLYAEYDWVKYTSNQTGGSFFEPFNSYNSGTWEKADGYSNGGVFNCTWRANNVNFTNDGKLKLGLTSSAYNKFDCAEYRSTNIYGYGLYEVSMKPAKNTGIVSSFFTYTGPAHGTQWDEIDIEFLGKDTTKVQFNYYTNG", "soluble on expression in E. coli": "soluble"},
      {"sequence": "VGPKTGEENQVLVPNLNPTPENLEVVGDGFKITSSINLVGEEEADENAVNALREFLTANNIEINSENDPNSTTLIIGEVDDDIPELDEALNGTTAENLKEEGYALVSNDGKIAIEGKDGDGTFYGVQTFKQLVKESNIPEVNITDYPTVSARGIVEGFYGTPWTHQDRLDQIKFYGENKLNTYIYAPKDDPYHREKWREPYPESEMQRMQELINASAENKVDFVFGISPGIDIRFDGDAGEEDFNHLITKAESLYDMGVRSFAIYWDDIQDKSAAKHAQVLNRFNEEFVKAKGDVKPLITVPTEYDTGAMVSNGQPRAYTRIFAETVDPSIEVMWTGPGVVTNEIPLSDAQLISGIYNRNMAVWWNYPVTDYFKGKLALGPMHGLDKGLNQYVDFFTVNPMEHAELSKISIHTAADYSWNMDNYDYDKAWNRAIDMLYGDLAEDMKVFANHSTRMDNKTWAKSGREDAPELRAKMDELWNKLSSKEDASALIEELYGEFARMEEACNNLKANLPEVALEECSRQLDELITLAQGDKASLDMIVAQLNEDTEAYESAKEIAQNKLNTALSSFAVISEKVAQSFIQEALSFDLTLINPRTVKITASSEETSGENAPASFASDGDMNTFWHSKWSSPAHEGPHHLTLELDNVYEINKVKYAPRQDSKNGRITGYKVSVSLDGENFTEVKTGTLEDNAAIKFIEFDSVDAKYVRLDVTDSVSDQANGRGKFATAAEVNVHG", "soluble on expression in E. coli": "soluble"},
      {"sequence": "VIHLDSKNFDSFLASHEIAVVDFWAEWCAPCLILAPIIEELAEDYPQVGFGKLNSDENPDIAARYGVMSLPTVIFFKDGEPVDEIIGAVPREEIEIRIKNLLGE", "soluble on expression in E. coli": "soluble"},
      {"sequence": "VKFIADPSGVDVLEEVEVFALGPTEVIVVGRLEFIYHEASDEYLEKFEGKLKKGVWYGTNIAVIFTLYRPAGSMEVDKIILDNTFEEIL", "soluble on expression in E. coli": "not soluble"},
      {"sequence": "VKNKKFTIIGGDLRSVKLAELIVAEGNKVNIYGFKNANFEIGIEESEDLDHAIGEADVIVGPTPCSTDNETINTPFHSQKIFIKDIFKKMNKSQLFIAGRITDKIAQLADVYNVYSVDLLEREEMAVLNAIPTAEGAIQIAMEEMPITLHGSNALILGFGRIGKILAKMLHGIGSNVYVEARKYSDLAWIESYGYKPVFITELESYIDRANVIFNTIPSIVLDENLLRKVNKDCLLIDLASKPGGIDFEKAKEMGLKTIWALSLPGKVAPVTAAKFIKDTISNIIDELGV", "soluble on expression in E. coli": "not soluble"},
      {"sequence": "VLSHCLETGFLTAYLALLVNFKPDVALKCGLYHDIGKADDENGKKNHTVTGAKIGDEFYFENDVKYTIANHHNKNVDNVYCRLTQIGDKLSAG", "soluble on expression in E. coli": "not soluble"},
      {"sequence": "VNKKDITYWEKRQERKYLAGEKKLDEYYKGLQKAFRQAKREIQSVINDFYMRYAKENKVSYAEAQKLLDKAEIGELQDFIDLVNKNMGKYNRKLNNMSIKARITRYQALEKQIDAILQQLYAIEYEYKGKELLKEVYEDSYYRTWFNIDQYHGFHQEFAQINPRTIEELIKYPWNGASFSDRIWKQKDHMLQVLKEDITTMLIQGKNPQTLARDFARRFKTKEYEAYRLLHTESSFIIEQGTLAAYKEDGVEKYQILATLDMRTSDICRSEDGKIYDVDEATVGVNYPPYHPFCRTTTVPYYEDAEVGTRVARDPVTGRSYEVPANMTYEQWKNRYIDQPDNIIRQEILSNPERLDNYSIQHYNKHKEGTKQYEQYKQSRLKKGQTEQSSLLISYDEAKEIIKKYAGTGVFSRDRKGKWRNEEFVDVDSIIGVVHNIDGTVTPTNRIQIKYGKNSVHIVPVLPRKERNK", "soluble on expression in E. coli": "soluble"},
      {"sequence": "VNKSQLIDKIAAGADISKAAAGRALDAIIASVTESLKEGDDVALVGFGTFAVKERAARTGRNPQTGKEITIAAAKVPSFRAGKALKDAVN", "soluble on expression in E. coli": "soluble"},
      {"sequence": "VPRIRKLVAALHRRGPHRVLRGDLAFAGLPGVVYTPEAGLHLPGVAFGHDWLTGTSRYSGLLEHLASWGIVAAAPDSERGLAPSVLNLAFDLGVALDIVAGVRLGPGKISVHPAKLGLVGHGFGGSAAVFAAAGLTGTHVKSVAAIFPTVTNPAAEQPAATLDVPGLILTAPGDPKTLTSNALGLSRAWDKATLRIVSKARAGGLVEGRRLTKVLGLPGPHRRTQRSVRALLTGYLLYTLGGDKTYRRFADPDLQLPKTDPIDPEAPPITPGEKIVTLLK", "soluble on expression in E. coli": "not soluble"},
      {"sequence": "VQRPWLAPLPGAPMNACRLLLCFPYGGGGASAFNDLSRLADVGVATWAVKLPGREDRSMEAPVTRVANVIEAIVDALQSVGIPYAFYGHSFGAGLALDVAHALAERDRPLPTHLVLSGRMPPHTGYSPLLGAMDDNQLWQHVCSESLLPLPTDASCSFARHALGKLKADLALNAQLTYRFIRPLPVPLYVLNGQDDPLLELHRLDEWQRYTSTSFHSEYVPGGHFFFNINFQLLYLPLLTALD", "soluble on expression in E. coli": "not soluble"},
      {"sequence": "VRMILDTIPKKNRHLVTTHDGYSYLGDAYGLSIAGFVSPNPSVEPSPRDIIALTRTLENLHVPAVFIEPQLALRANHLTVTADKLGIQVCRIYGDSLDDEVPTYLDFMKYNAHSLARCLGQSEGK", "soluble on expression in E. coli": "not soluble"}
    ]}
  ]
}
